In US20210252040:

Target: α-enolase of Enterococcus faecalis V583, surface-expressed

B1: human glu-plasminogen (Haematologic technologies) (protein)
chain: KVYLSECKTGNGKNYRGTMSKTKNGITCQKWSSTSPHRPRFSPATHPSEGLEENYCRNPDNDPQGPWCYTTDPEKRYDYCDILECEEECMHCSGENYDGKISKTMSGLECQAWDSQSPHAHGYIPSKFPNKNLKKNYCRNPDRELRPWCFTTDPNKRWELCDIPRCTTPPPSSGPTYQCLKGTGENYRGNVAVTVSGHTCQHWSAQTPHTHNRTPENFPCKNLDENYCRNPDGKRAPWCHTTNSQVRWEYCKIPSCDSSPVSTEQLAPTAPPELTPVVQDCYHGDGQSYRGTSSTTTTGKKCQSWSSMTPHRHQKTPENYPNAGLTMNYCRNPDADKGPWCFTTDPSVRWEYCNLKKCSGTEASVVAPPPVVLLPDVETPSEEDCMFGNGKGYRGKRATTVTGTPCQDWAAQEPHRHSIFTPETNPRAGLEKNYCRNPDGDVGGPWCYTTNPRKLYDYCDVPQCAAPSFDCGKPQVEPKKCPGRVVGGCVAHPHSWPWQVSLRTRFGMHFCGGTLISPEWVLTAAHCLEKSPRPSSYKVILGAHQEVNLEPHVQEIEVSRLFLEPTRKDIALLKLSSPAVITDKVIPACLPSPNYVVADRTECFITGWGETQGTFGAGLLKEAQLPVIENKVCNRYEFLNGRVQSTELCAGHLAGGTDSCQGDSGGPLVCFEKDKYILQGVTSWGLGCARPNKPGVYVRVSRFVTWIEGVMRNN
plasmin activity assay with enolase-blocking antibodies: The data is consistent with surface-expressed alpha-enolase being one of multiple PLG receptors on E. faecalis
